The values below come from patent US10227387 (CHILDREN S HOSPITAL MEDICAL CENTER, dated 2019).

This assay has as its target LRP1 (full-length cDNA of LRP-1, Accession #NM_002332.2) overexpressed on cells (human, UniProt Q07954 20-4544). Put plainly: cell-based or functional assay.

LRP1 (full-length cDNA of LRP-1, Accession #NM_002332.2) overexpressed on cells, sequence (Q07954 20-4544): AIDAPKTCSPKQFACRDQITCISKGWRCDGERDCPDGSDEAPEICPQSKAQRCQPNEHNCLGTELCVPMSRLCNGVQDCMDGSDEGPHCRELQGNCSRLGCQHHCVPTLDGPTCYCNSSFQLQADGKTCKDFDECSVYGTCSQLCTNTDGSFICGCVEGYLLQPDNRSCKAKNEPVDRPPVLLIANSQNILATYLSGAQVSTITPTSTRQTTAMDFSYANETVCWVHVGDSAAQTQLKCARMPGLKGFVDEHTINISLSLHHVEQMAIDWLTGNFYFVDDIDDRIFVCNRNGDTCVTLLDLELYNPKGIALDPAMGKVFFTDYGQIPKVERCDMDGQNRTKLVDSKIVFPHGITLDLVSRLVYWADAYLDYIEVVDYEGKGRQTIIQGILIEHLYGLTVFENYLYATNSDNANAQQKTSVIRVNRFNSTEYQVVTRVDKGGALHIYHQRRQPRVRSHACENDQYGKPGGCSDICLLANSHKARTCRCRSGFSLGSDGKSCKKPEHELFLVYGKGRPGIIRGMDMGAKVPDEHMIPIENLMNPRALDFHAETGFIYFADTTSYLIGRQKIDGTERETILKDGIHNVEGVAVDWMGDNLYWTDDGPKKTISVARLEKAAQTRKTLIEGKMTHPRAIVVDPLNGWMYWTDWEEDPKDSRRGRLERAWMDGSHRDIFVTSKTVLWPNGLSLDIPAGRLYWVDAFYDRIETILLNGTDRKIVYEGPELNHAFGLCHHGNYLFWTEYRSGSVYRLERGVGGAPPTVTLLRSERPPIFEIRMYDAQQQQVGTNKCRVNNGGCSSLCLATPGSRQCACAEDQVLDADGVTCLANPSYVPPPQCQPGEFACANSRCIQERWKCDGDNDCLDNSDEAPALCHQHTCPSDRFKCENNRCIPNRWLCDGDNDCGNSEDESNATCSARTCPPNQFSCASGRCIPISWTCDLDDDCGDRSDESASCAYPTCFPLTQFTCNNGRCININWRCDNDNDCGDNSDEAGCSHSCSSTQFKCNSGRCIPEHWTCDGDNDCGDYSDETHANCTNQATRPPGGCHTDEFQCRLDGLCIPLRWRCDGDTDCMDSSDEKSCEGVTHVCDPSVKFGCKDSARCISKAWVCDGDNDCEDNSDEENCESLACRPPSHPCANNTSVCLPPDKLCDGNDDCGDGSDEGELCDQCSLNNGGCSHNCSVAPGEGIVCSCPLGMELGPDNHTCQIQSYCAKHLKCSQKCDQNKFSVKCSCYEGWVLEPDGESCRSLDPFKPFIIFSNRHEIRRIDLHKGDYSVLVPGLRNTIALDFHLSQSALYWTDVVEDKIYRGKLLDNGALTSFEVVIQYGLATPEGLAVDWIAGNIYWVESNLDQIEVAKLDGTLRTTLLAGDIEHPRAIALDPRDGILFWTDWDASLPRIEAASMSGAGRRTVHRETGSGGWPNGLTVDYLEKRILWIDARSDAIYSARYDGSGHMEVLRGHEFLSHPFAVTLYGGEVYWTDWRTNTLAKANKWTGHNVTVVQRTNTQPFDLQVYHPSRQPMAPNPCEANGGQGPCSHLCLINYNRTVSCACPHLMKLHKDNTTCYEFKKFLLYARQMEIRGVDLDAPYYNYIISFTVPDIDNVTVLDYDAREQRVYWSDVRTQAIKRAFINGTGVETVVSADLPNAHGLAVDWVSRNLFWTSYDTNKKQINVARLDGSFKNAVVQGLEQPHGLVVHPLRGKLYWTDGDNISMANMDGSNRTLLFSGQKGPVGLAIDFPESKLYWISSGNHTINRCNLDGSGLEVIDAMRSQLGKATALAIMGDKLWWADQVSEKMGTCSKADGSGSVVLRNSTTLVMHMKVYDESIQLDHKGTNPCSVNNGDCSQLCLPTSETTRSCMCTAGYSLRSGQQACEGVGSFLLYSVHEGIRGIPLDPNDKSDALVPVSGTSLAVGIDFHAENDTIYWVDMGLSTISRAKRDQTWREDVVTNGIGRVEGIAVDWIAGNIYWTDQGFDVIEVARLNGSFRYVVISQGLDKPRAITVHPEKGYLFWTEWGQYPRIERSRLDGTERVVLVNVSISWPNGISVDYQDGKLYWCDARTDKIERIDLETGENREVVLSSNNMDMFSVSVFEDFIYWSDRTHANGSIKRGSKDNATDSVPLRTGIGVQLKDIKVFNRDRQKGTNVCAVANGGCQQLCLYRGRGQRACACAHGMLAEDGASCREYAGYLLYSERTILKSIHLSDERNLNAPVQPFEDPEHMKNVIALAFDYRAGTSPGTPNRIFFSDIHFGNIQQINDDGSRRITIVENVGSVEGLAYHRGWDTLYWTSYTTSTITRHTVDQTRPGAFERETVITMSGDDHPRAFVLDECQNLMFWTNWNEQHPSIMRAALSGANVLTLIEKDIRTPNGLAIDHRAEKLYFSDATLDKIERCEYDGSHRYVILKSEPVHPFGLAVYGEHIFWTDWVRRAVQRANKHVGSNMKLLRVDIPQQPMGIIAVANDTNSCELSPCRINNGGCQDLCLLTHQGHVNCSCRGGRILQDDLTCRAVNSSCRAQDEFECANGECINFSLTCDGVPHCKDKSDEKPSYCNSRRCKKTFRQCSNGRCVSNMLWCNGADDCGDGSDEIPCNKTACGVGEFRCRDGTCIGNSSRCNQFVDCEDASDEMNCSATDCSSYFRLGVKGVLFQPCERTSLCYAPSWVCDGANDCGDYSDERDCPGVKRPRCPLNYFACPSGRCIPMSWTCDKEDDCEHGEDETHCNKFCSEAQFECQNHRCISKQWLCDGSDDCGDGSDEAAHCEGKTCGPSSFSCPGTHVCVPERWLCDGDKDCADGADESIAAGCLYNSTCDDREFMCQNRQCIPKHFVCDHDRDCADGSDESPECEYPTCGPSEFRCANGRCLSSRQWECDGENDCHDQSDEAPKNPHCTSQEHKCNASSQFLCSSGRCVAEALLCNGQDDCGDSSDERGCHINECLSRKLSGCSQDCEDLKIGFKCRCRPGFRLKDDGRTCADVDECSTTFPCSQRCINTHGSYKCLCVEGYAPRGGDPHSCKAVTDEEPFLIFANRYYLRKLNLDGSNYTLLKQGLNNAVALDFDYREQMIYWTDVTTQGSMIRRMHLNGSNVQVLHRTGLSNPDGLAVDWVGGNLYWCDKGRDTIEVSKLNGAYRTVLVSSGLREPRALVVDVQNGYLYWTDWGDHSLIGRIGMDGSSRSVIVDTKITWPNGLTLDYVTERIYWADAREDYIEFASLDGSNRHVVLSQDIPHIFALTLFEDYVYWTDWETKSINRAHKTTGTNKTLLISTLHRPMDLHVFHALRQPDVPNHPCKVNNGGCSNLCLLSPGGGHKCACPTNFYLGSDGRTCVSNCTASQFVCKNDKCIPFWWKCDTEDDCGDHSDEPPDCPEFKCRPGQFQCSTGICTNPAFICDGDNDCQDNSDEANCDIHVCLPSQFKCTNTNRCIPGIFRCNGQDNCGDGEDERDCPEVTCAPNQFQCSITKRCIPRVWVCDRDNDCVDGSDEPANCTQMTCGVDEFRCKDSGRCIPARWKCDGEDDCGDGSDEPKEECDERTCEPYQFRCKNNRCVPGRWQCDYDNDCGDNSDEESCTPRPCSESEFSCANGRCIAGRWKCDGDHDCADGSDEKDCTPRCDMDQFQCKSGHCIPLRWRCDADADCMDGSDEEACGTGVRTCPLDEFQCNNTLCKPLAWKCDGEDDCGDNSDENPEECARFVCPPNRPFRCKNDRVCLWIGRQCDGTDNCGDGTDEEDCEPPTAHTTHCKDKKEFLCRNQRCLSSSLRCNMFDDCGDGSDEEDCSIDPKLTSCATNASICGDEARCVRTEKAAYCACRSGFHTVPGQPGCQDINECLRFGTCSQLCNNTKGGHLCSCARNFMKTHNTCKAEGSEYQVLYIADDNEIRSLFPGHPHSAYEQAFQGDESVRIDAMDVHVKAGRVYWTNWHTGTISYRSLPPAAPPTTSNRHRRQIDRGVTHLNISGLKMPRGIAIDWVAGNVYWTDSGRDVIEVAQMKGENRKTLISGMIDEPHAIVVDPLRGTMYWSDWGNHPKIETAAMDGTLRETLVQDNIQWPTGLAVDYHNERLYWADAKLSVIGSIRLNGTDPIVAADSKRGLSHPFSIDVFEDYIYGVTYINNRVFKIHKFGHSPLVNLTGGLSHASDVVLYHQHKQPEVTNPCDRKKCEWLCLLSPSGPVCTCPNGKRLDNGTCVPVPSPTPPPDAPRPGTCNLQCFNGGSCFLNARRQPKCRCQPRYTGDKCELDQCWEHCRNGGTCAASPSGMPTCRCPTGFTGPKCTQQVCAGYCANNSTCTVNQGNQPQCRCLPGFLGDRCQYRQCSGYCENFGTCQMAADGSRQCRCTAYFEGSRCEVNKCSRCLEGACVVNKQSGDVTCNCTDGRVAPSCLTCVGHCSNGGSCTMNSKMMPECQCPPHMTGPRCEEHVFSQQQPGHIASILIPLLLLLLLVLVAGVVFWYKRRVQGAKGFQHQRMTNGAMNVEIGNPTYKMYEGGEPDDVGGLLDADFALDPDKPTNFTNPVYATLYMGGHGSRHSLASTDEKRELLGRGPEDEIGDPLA

B1: IDUAe1 (enzyme)
chain: APHLVHVDAARALWPLRRFWRSTGFCPPLPHSQADQYVLSWDQQLNLAYVGAVPHRGIKQVRTHWLLELVTTRGSTGRGLSYNFTHLDGYLDLLRENQLLPGFELMGSASGHFTDFEDKQQVFEWKDLVSSLARRYIGRYGLAHVSKWNFETWNEPDHHDFDNVSMTMQGFLNYYDACSEGLRAASPALRLGGPGDSFHTPPRSPLSWGLLRHCHDGTNFFTGEAGVRLDYISLHRKGARSSISILEQEKVVAQQIRQLFPKFADTPIYNDEADPLVGWSLPQPWRADVTYAAMVVKVIAQHQNLLLANTTSAFPYALLSNDNAFLSYHPHPFAQRTLTARFQVNNTRPPHVQLLRKPVLTAMGLLALLDEEQLWAEVSQAGTVLDSNHTVGVLASAHRPQGPADAWRAAVLIYASDDTRAHPNRSVAVTLRLRGVPPGPGLVYVTRYLDNGLCSPDGEWRRLGRPVFPTAEQFRRMRAAEDPVAAAPRPLPAGGRLTLRPALRLPSLLLVHVCARPEKPPGQVTRLRALPLTQGQLVLVWSDEHVGSKCLWTYEIQFSQDGKAYTPVSRKPSTFNLFVFSPDTGAVSGSYRVRALDYWARPGPFSDPVPYLEVPVPRGPPSPGNPILKKATAYILLRKLRKRLLLRKLRKRLL
Regarding B1, the “intracellular enzyme level in pause-chase uptake assay, CHO^LDLRneg-LRP1 cells, against unmodified IDUA” value was found to be 2 fold.
